Measurements published in US20070099837A1.

Target: human zFGF5 (human) (UniProt O76093)
Experiment: cell-based or functional assay

Sequence of human zFGF5 (human) (O76093 28-207): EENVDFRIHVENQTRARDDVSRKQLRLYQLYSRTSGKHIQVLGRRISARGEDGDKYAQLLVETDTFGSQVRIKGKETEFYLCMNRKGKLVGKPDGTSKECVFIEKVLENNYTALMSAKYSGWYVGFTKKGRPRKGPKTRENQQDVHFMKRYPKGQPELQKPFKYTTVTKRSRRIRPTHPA

Row | Cell Proliferation (percent of control), BAF3 cells expressing FGFR3α-IIIc with zFGF5, soluble receptor at 0 fold-excess (percent of control) | Cell Proliferation (percent of control), BAF3 cells expressing FGFR3α-IIIc with zFGF5, soluble receptor at 62.5 fold-excess (percent of control) | Cell Proliferation (percent of control), BAF3 cells expressing FGFR3α-IIIc with zFGF5, soluble receptor at 125 fold-excess (percent of control) | Cell Proliferation (percent of control), BAF3 cells expressing FGFR3α-IIIc with zFGF5, soluble receptor at 250 fold-excess (percent of control) | Cell Proliferation (percent of control), BAF3 cells expressing FGFR3α-IIIc with zFGF5, soluble receptor at 500 fold-excess (percent of control) | Cell Proliferation (percent of control), BAF3 cells expressing FGFR3α-IIIc with zFGF5, soluble receptor at 1000 fold-excess (percent of control) | Cell Proliferation (percent of control), BAF3 cells expressing FGFR3α-IIIc with zFGF5, soluble receptor at 0.8 fold-excess (percent of control) | Cell Proliferation (percent of control), BAF3 cells expressing FGFR3α-IIIc with zFGF5, soluble receptor at 1.6 fold-excess (percent of control) | Cell Proliferation (percent of control), BAF3 cells expressing FGFR3α-IIIc with zFGF5, soluble receptor at 3.2 fold-excess (percent of control) | Cell Proliferation (percent of control), BAF3 cells expressing FGFR3α-IIIc with zFGF5, soluble receptor at 6.3 (printed 6..3) fold-excess (percent of control) | Cell Proliferation (percent of control), BAF3 cells expressing FGFR3α-IIIc with zFGF5, soluble receptor at 12.5 fold-excess (percent of control) | Cell Proliferation (percent of control), BAF3 cells expressing FGFR3α-IIIc with zFGF5, soluble receptor at 25 fold-excess (percent of control) | Cell Proliferation (percent of control), BAF3 cells expressing FGFR3α-IIIc with zFGF5, soluble receptor at 50 fold-excess (percent of control) | Cell Proliferation (percent of control), BAF3 cells expressing FGFR3α-IIIc with zFGF5, soluble receptor at 100 fold-excess (percent of control) | Substance
1 | 100 | 101 | 90 | 91 | 101 | 99 |  |  |  |  |  |  |  |  | FGFR2α-IIIb/Fc soluble receptor (from UniProt P21802 22-378) (Fc fusion)
2 | 100 |  |  |  |  |  | 85 | 66 | 37 | 5 | 1 | 0.2 | 0 | 0 | FGFR3α-IIIc/Fc soluble receptor (Fc fusion)
